According to patent US20060257938A1, “Method of screening for drugs that block ligand binding to a lipid binding protein” (priority 2005, published 2006):
Where a chain is given by its changes, count along the chain named. Several values for one entry are separate records, joined by “and”; a condition that tells them apart may be missing. Identical values can stand only once.

B1: 102H, 72A (protein, listed as Rattus norvegicus)
chain: AFDGTWKVDRNENYEKFMEKMGINVVKRKLGAHDNLKLTITQEGNKFTVKESSNFRNIDVVFELGVDFAYSAADGTELTGTWTMEGNKLVGKFKRVDNGKEHIAVREISGNELIQTYTYEGVEAKRIFKKE
modifications: PEPTIDE (1)...(131) wild-type rat intestinal fatty acid binding protein
B2: 11Y1, L72A (protein, listed as Rattus norvegicus)
chain: B1 chain with N11Y, H102L
modifications: PEPTIDE (1)...(131) wild-type rat intestinal fatty acid binding protein
B3: 126V, 72A (protein, listed as Rattus norvegicus)
chain: B1 chain with H102L, R126V
modifications: PEPTIDE (1)...(131) wild-type rat intestinal fatty acid binding protein
B4: 14A, 72A (protein, listed as Rattus norvegicus)
chain: B1 chain with Y14A, H102L
modifications: PEPTIDE (1)...(131) wild-type rat intestinal fatty acid binding protein
B5: 14E, 72A (protein, listed as Rattus norvegicus)
chain: B1 chain with Y14E, H102L
modifications: PEPTIDE (1)...(131) wild-type rat intestinal fatty acid binding protein
B6: 126A, 72A (protein, listed as Rattus norvegicus)
chain: B1 chain with H102L, R126A
modifications: PEPTIDE (1)...(131) wild-type rat intestinal fatty acid binding protein
B7: 126D, 72A (protein, listed as Rattus norvegicus)
chain: B1 chain with H102L, R126D
modifications: PEPTIDE (1)...(131) wild-type rat intestinal fatty acid binding protein
B8: 126L, 72A (protein, listed as Rattus norvegicus)
chain: B1 chain with H102L, R126L
modifications: PEPTIDE (1)...(131) wild-type rat intestinal fatty acid binding protein
B9: 126I, 72A (protein, listed as Rattus norvegicus)
chain: B1 chain with H102L, R126I
modifications: PEPTIDE (1)...(131) wild-type rat intestinal fatty acid binding protein
B10: 126M, 72A (protein, listed as Rattus norvegicus)
chain: B1 chain with H102L, R126M
modifications: PEPTIDE (1)...(131) wild-type rat intestinal fatty acid binding protein
B11: 126H, 72A (protein, listed as Rattus norvegicus)
chain: B1 chain with H102L, R126H
modifications: PEPTIDE (1)...(131) wild-type rat intestinal fatty acid binding protein
B12: 14D, 72A (protein, listed as Rattus norvegicus)
chain: B1 chain with Y14D, H102L
modifications: PEPTIDE (1)...(131) wild-type rat intestinal fatty acid binding protein
B13: 14F, 72A (protein, listed as Rattus norvegicus)
chain: B1 chain with Y14F, H102L
modifications: PEPTIDE (1)...(131) wild-type rat intestinal fatty acid binding protein
B14: 126E, 72A (protein, listed as Rattus norvegicus)
chain: B1 chain with H102L, R126E
modifications: PEPTIDE (1)...(131) wild-type rat intestinal fatty acid binding protein
B15: 11Y1, 72A (protein, listed as Rattus norvegicus)
chain: B1 chain with N11Y, H102L
modifications: PEPTIDE (1)...(131) wild-type rat intestinal fatty acid binding protein
B16: 102I, 72A (protein, listed as Rattus norvegicus)
chain: B1 chain with H102I
modifications: PEPTIDE (1)...(131) wild-type rat intestinal fatty acid binding protein
B17: 126F, 72A (protein, listed as Rattus norvegicus)
chain: B1 chain with H102L, R126F
modifications: PEPTIDE (1)...(131) wild-type rat intestinal fatty acid binding protein

Experiment: Probe fluorescence ratio response to arachidonic acid relative to ADIFAB2
Assay type: binding
Settings: arachidonic acid; response relative to ADIFAB2
In short: (§1)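 Each fatty acid's response was expressed relative to ADIFAB2, the rI-FABP-L72A probe, as ΔR/ΔRreference. ΔR is the change in the background-corrected two-wavelength intensity ratio R=Fλ1/Fλ2 from its analyte-free baseline R0. Emission was read near about 420-480 nm for unbound and about 495-580 nm for FFA-bound probe.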

Molecule	DR/DR AA
B1	0.52
B2	0.49
B3	0.42
B4	0.53
B5	0.51
B6	1.27
B7	0.44
B8	0.66
B9	0.45
B10	0.32
B11	0.20
B12	0.46
B13	0.83
B14	0.25
B15	0.52
B16	1.46 and 1.461
B17	0.52

Experiment: Probe fluorescence ratio response to linolenic acid relative to ADIFAB2
Assay type: binding
Settings: response relative to ADIFAB2
In short: as §1

Molecule	DR/DR LNA
B1	0.63
B2	0.33
B3	0.42
B4	0.56
B5	0.61
B6	1.36
B7	0.56
B8	0.66
B9	0.43
B10	0.28
B11	0.46
B12	0.51
B13	0.88
B14	0.32
B15	0.31
B16	1.76 and 1.763
B17	0.53

Experiment: Probe fluorescence ratio response to linoleic acid relative to ADIFAB2
Assay type: binding
Settings: response relative to ADIFAB2
In short: as §1

Molecule	DR/DR LA
B1	0.65
B2	0.32
B3	0.45
B4	0.56
B5	0.56
B6	1.32
B7	0.59
B8	0.64
B9	0.43
B10	0.31
B11	0.46
B12	0.53
B13	0.88
B14	0.34
B15	0.33
B16	1.90 and 1.902
B17	0.51

Experiment: Probe fluorescence ratio response to oleic acid relative to ADIFAB2
Assay type: binding
Settings: response relative to ADIFAB2
In short: as §1

Molecule	DR/DR OA
B1	0.66
B2	0.16
B3	0.33
B4	0.36
B5	0.41
B6	1.38
B7	0.64
B8	0.55
B9	0.34
B10	0.24
B11	0.43
B12	0.34
B13	0.72
B14	0.30
B15	0.16
B16	1.93 and 1.929
B17	0.43

Experiment: Probe fluorescence ratio response to palmitic acid relative to ADIFAB2
Assay type: binding
Settings: response relative to ADIFAB2
In short: as §1

Molecule	DR/DR PA
B1	0.37
B2	0.25
B3	0.34
B4	0.24
B5	0.44
B6	1.22
B7	0.37
B8	0.38
B9	0.38
B10	0.29
B11	0.32
B12	0.28
B13	0.60
B14	0.21
B15	0.30
B16	1.17 and 1.169
B17	0.34
